According to patent US20120114659A1 (published 2012):

Molecular target: T1, human NPRA on HEK cells loaded with BNP (human, UniProt P16860 103-134)
T1 sequence: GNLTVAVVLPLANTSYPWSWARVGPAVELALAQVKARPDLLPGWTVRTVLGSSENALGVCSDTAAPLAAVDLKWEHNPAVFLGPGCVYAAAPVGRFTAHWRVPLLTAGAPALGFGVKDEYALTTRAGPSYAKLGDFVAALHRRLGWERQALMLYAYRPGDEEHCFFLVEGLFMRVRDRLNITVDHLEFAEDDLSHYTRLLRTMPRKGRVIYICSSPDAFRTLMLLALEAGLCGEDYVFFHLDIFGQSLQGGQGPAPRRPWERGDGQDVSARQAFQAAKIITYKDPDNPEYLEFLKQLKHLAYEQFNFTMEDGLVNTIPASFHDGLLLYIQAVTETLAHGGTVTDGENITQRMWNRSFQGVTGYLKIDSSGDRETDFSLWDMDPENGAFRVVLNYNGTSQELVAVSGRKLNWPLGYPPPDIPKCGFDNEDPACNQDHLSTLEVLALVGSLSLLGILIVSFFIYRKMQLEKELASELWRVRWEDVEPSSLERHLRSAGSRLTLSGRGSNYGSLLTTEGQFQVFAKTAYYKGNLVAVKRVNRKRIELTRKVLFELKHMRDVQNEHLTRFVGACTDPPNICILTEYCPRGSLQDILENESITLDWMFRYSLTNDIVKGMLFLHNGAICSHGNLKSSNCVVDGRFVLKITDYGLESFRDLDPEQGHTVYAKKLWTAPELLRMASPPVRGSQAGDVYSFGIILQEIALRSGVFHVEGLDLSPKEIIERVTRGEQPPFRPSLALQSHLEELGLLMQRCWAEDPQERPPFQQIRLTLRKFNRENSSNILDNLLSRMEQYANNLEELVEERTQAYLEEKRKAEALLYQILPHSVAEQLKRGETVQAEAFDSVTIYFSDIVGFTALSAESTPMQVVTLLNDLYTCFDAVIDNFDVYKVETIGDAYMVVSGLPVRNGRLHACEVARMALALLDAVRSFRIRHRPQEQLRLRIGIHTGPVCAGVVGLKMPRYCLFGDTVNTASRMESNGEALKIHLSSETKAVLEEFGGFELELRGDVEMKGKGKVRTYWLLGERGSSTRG
T1 sequence (peptide): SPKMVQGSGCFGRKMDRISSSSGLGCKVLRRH
Test: cell-based or functional assay

B1: 5064 Fab (Fab, V domains shown)
VH: QVQLQQSGPGLVKPSQTLSLTCAISGDSVSSRSASWSWIRQSPGRGLEWLGRIYYRSKWYNDYAVSVKSRITINPDTSKNQFSLQLNSVTPEDTAVYYCARMDVPSFRYFDVWGQGTLVTVSS
VL: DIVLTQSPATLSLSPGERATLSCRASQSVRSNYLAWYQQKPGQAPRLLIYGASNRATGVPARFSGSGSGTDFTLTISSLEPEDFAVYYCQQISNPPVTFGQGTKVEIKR
fold decrease of the EC50 of BNP (cGMP, HEK NPRA cells, 400 nM Fab): 2 fold
